Results as given in US20210332135A1 (ANTIBODY BIOPHARM, published 2021).
Numbering of substitutions follows the chain as printed. Each block holds one binder with its values, some of them ahead of it.

Columns and labels:
[1] = molecular target: T1, recombinant CD47 extracellur domain protein (UniProt Q08722 19-139, limits assumed); assay: ELISA
T1 construct: extracellular domain; ELISA antigen

[2] = molecular target: T2, recombinant PD-L1 extracellur domain protein (UniProt Q9NZQ7 19-238, limits assumed); assay: ELISA
T2 construct: extracellular domain; ELISA antigen

[3] = molecular target: T3, PD-L1 and CD47 double positive CHO cell pool (UniProt Q9NZQ7 19-290; Q08722 19-323, limits assumed); assay: flow cytometry, double positive against single positive CHO cell pools
T3 construct: whole, on cells; Two separate membrane proteins on one cell, not a complex; also called CD47 and PD-L1 double positive cells; double targets positive CHO cell

[4] = molecular target: T4, recombinant HER2 extracellur domain protein (UniProt P04626 23-652); assay: ELISA
T4 construct: extracellular domain; ELISA antigen

[5] = molecular target: T5, HER2 and CD47 double positive CHO cell pool (UniProt P04626 23-1255; Q08722 19-323, limits assumed); assay: flow cytometry, double positive against single positive CHO cell pools
T5 construct: whole, on cells; Two separate membrane proteins on one cell, not a complex; also called CD47+HER2+ double positive cells; double targets positive CHO cell

T1 sequence (Q08722 19-139 limits assumed): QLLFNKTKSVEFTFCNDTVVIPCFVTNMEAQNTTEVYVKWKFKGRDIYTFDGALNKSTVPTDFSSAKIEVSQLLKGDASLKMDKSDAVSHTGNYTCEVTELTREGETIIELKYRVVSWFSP
T3 sequence (Q9NZQ7 19-290 limits assumed, chain 1 of 2): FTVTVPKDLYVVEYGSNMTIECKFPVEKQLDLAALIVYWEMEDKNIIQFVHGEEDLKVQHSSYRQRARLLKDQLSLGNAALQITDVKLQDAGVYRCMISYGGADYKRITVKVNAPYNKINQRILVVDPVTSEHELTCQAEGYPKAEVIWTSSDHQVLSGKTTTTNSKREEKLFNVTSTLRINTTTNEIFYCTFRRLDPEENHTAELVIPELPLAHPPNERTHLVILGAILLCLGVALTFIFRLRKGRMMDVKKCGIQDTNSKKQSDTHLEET
T3 sequence (Q08722 19-323 limits assumed, chain 2 of 2): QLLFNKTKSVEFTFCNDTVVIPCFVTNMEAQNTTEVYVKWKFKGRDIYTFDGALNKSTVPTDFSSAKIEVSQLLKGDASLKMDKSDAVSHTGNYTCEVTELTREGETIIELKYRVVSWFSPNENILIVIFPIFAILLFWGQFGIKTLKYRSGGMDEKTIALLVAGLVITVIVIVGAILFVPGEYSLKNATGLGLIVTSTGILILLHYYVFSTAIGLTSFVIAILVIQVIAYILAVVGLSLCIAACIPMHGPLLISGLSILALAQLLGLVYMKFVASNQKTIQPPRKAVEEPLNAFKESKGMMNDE
T2 sequence (Q9NZQ7 19-238 limits assumed): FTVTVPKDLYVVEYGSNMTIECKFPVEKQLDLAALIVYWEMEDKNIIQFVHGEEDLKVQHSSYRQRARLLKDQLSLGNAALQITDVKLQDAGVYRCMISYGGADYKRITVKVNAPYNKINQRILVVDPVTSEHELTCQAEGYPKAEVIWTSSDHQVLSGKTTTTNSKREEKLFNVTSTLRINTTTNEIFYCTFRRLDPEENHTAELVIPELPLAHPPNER

binding acitivity [1]: > 100 nM
B1: AbD066, bi-specific GCT Ab against HER2 and CD47 (bispecific antibody, V domains shown)
VH: EVQLVESGGGLVQPGGSLRLSCAASGFNIKDTYIHWVRQAPGKEREWVARIYPTNGYTRYADSVKGRFTISRDNAKDTVYLQMNSLRAEDTAVYYCSRWGGDGFYAMDYWGQGTLVTVSS
VL: ELQVIQPDKSVSVAAGESAILHCTVTSLIPVGPIQWFRGAGPARELIYNQKEGHFPRVTTVSESTKRNNMDFSIRIGNITPADAGTYYCVKFRKGSPDDVEFKSGAGTELSVRA
notes: Anti-HER2 single domain on IgG1 heavy chain, SIRPa domain on kappa chain; Fc of IgG1 wild type; Parents named as H069 and S012; also called ABP366 (AbD066 and AbD068-1)

binding acitivity [2]: > 100 nM
binding acitivity [1]: > 100 nM
fold stronger staining than on the single target positive cells [3]: ~10 fold
B2: AbD036, bi-specific GCT Ab against PD-L1 and CD47 (bispecific antibody, human IgG1, kappa, L234A L235A)
heavy: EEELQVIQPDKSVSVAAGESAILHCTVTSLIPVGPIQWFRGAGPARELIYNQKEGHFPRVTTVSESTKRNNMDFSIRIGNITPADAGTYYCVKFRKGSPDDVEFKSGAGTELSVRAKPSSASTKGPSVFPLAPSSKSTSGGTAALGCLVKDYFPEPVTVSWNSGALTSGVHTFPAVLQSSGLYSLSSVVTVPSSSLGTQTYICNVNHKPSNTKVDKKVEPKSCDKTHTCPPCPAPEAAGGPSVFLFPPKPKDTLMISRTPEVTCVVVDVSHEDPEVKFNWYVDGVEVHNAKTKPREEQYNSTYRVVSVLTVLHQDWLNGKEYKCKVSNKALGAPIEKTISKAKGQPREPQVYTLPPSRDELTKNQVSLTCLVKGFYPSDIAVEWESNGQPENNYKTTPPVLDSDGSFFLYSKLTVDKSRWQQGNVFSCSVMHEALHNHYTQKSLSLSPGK
light: DSPDRPWNPPTFSPALLVVTEGDNATFTCSFSNTSESFVLNWYRMSPSNQTDKLAAFPEDRSQPGQDCRFRVTQLPNGRDFHMSVVRARRNDSGTYLCGAISRAPKAQIKESLRAELRVTERRAEVSSRTVAAPSVFIFPPSDEQLKSGTASVVCLLNNFYPREAKVQWKVDNALQSGNSQESVTEQDSKDSTYSLSSTLTLSKADYEKHKVYACEVTHQGLSSPVTKSFNRGEC
notes: SIRPa domain on IgG1 heavy chain, PD-1 IgV domain on kappa chain; also called ABP336

binding acitivity [2]: > 100 nM
binding acitivity [1]: > 100 nM
fold stronger staining than on the single target positive cells [3]: ~10 fold
B3: AbD037, bi-specific GCT Ab against PD-L1 and CD47 (bispecific antibody, human IgG1, kappa, L234A L235A)
heavy: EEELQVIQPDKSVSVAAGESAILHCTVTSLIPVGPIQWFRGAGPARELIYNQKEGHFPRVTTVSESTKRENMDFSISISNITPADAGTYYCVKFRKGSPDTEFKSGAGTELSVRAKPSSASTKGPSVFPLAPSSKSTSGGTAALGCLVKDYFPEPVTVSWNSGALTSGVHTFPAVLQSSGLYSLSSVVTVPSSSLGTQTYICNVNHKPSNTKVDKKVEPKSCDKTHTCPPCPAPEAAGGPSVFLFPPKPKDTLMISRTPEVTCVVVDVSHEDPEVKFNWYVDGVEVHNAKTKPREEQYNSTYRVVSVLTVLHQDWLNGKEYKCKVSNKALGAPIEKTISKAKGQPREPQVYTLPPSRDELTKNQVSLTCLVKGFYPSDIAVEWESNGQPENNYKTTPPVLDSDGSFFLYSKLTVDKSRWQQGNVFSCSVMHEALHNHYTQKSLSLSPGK
light: B2 light with R103L
notes: SIRPa domain on IgG1 heavy chain, PD-1 IgV domain on kappa chain; Parents named as P048 and S007; also called ABP336

binding acitivity [1]: > 100 nM
binding acitivity [4]: ~100 nM
fold stronger staining than on the single target positive cells [5]: ~100 fold
B4: AbD068-1, bi-specific GCT Ab against HER2 and CD47 (bispecific antibody, human IgG1, kappa, V domains shown)
VH: QVQLVQSGGGLVQAGGSLRLSCAASGRTFSSYAMAWFRQAPGKEREFVAAISWSGANIYVADSVKGRFTISRDNAKDTVYLQMNSLKPEDTAVYYCAVKLGFAPVEERQYDYWGQGTQVTVSS
VL: not shown
notes: Anti-HER2 single domain on IgG1 heavy chain, SIRPa domain on kappa chain; Fc of IgG1 wild type; Parents named as H16 (H016) and S007; also called ABP366 (AbD066 and AbD068-1)
